Measured values reported in US20250306026A1 (Dana-Farber, published 2025).
One block for each binder: values may come before it. Bridge positions count the residues as written; N and C are the ends. Square brackets hold non-standard residues; d marks the D form. Ends that are not written are not given here. * marks the point of attachment. Biotin = O=C1N[C@H]2[C@H](CS[C@H]2CCCCC(=O)*)N1; S5 = C=CCCC[C@](C)(N)C(=O)O

Assays:
[1] = molecular target: T1, native VLCAD (Very Long Chain Acyl CoA Dehydrogenase) from mouse embryonic fibroblast lysates (mouse, UniProt P50544 42-656); assay: DSS chemical crosslinking of intact mouse liver mitochondria, Western (FIG. 32)
T1 construct: also called endogenous VLCAD of mouse liver mitochondria
T1 sequence (looked up): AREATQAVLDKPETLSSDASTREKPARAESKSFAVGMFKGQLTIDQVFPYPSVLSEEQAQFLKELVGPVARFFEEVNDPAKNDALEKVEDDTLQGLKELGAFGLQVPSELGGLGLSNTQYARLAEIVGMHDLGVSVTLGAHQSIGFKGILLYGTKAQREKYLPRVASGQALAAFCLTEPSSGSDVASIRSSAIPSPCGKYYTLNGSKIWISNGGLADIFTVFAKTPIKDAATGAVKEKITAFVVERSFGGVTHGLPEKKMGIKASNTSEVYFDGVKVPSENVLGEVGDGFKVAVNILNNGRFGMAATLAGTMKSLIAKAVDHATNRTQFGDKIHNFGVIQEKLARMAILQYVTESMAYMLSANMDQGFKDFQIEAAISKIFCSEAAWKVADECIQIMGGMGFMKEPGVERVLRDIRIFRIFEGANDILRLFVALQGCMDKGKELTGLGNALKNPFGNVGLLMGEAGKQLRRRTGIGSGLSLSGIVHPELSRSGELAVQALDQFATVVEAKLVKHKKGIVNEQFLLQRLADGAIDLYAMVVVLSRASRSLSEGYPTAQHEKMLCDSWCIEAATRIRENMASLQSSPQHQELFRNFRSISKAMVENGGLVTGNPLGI
Description: To investigate the native interaction between VLCAD and MCL-1, intact mitochondria were isolated from mouse livers and exposed to the chemical crosslinker DSS. Vehicle or DSS-treated mitochondria were then lysed and the resultant lysate run on a reducing/denaturing gel.

[2] = molecular target: MCL-1 SAHBs that do not bind VLCAD
MCL-1 SAHBD = molecular target: T2, MCL-1 SAHBD
T2 chain: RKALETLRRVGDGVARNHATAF

[3] = molecular target: recombinant VLCAD (mature human VLCAD lacking its cleavable leader sequence, aa 40-655, 10x His-tagged) (human) (UniProt P49748); assay: ITC, 200 µM Btn-peptide injected into 15 µM recombinant VLCAD, 25 °C, single binding site model
MCAD = molecular target: T3, MCAD (mouse, UniProt P45952 26-421); assay: streptavidin pull-down with biotinylated SAHB from cellular lysate; western blot for MCAD
T3 sequence (looked up): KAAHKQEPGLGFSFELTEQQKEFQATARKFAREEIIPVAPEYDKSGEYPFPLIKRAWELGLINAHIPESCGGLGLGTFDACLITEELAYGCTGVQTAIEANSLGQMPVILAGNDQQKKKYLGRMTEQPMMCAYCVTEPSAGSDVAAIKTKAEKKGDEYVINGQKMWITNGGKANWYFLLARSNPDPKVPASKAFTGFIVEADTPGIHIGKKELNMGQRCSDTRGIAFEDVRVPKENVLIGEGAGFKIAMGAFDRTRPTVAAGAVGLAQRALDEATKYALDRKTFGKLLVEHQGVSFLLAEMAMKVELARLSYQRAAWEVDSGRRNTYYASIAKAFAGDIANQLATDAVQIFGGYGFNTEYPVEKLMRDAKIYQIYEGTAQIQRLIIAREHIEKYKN
Description: (§1) To validate the MS result, the pulldowns were repeated and eluates run on a gel for anti-VLCAD Western blot analysis. VLCAD was detected in the MCL-1 SAHBD pulldown eluate, confirming the MS results. […] All peptides faithfully recapitulated native BH3-binding propensities for endogenous MCL-1 protein (FIG. 8). The eluates were then probed for the other members of the acyl-CoA dehydrogenase family that manifest shorter fatty acid substrate specificities. MCL-1 SAHBD was able to pull down VLCAD, but not MCAD or SCAD (FIG. 9). Because the traditional MCL-1 staple location differs from that of the BIM, BID, and BAD SAHBs, it was important to confirm that the observed VLCAD binding specificity was due to BH3 sequence selectivity, not staple position. A BIM SAHB with the traditional MCL-1 staple (BIM SAHBF), and a MCL-1 stapled peptide with the traditional BIM staple (MCL-1 SAHBA), were generated. […]
(§2) Wild-type MEFs were trypsinized, washed once with cold PBS, and lysed on ice with NP-40 lysis buffer (50 mM Tris, pH 7.4, 150 mM NaCl, 0.5% (v/v) NP-40, complete protease inhibitor pellet (Roche)) using 1 ml of lysis buffer for every 10 million cells lysed. Cellular debris was pelleted at 14,000 g for 10 min at 4° C., and the supernatant was quantified using the BCA Protein Assay Kit (Thermo Fisher Scientific). […]

MCL-1ΔNΔC = MCL-1ΔNΔC (UniProt Q07820); assay: biolayer interferometry; Biotin-PEG SAHB on streptavidin sensors, MCL-1ΔNΔC in solution at the plotted concentrations
SCAD = molecular target: T4, SCAD (mouse, UniProt Q07417 25-412); assay: streptavidin pull-down with biotinylated SAHB from cellular lysate; western blot for SCAD
T4 sequence (looked up): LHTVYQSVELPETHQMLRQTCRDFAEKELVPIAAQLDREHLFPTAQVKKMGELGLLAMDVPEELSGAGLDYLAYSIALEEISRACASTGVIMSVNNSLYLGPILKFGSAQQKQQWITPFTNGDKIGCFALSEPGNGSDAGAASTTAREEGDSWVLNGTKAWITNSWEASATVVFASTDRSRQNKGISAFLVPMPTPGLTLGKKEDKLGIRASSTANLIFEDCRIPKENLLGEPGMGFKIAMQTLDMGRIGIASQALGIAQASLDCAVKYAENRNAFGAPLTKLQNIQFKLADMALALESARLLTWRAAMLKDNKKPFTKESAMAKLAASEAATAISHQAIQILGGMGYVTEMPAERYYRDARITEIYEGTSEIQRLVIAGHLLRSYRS
Description: as §1, §2

[4] = molecular target: recombinant VLCAD (mature human VLCAD lacking its cleavable leader sequence, aa 40-655, 10x His-tagged) (human) (UniProt P49748); assay: biolayer interferometry; Biotin-PEG SAHB on streptavidin sensors, VLCAD in solution at the plotted concentrations
[5] = molecular target: T1, native VLCAD (Very Long Chain Acyl CoA …); assay: streptavidin pull-down with biotinylated SAHB from MEF lysate; western blot for VLCAD, densitometry ratio mutant/WT
Experimental: Wild-type MEFs were trypsinized, washed once with cold PBS, and lysed on ice with NP-40 lysis buffer (50 mM Tris, pH 7.4, 150 mM NaCl, 0.5% (v/v) NP-40, complete protease inhibitor pellet (Roche)) using 1 ml of lysis buffer for every 10 million cells lysed. Cellular debris was pelleted at 14,000 g for 10 min at 4° C., and the supernatant was quantified using the BCA Protein Assay Kit (Thermo Fisher Scientific). 2 mg of lysate per pulldown were then exposed to 50 μL of pre-equilibrated High Capacity Streptavidin Agarose beads (Thermo Fisher Scientific). […] The beads were then pelleted and washed with NP-40 lysis buffer three times before eluting the protein sample from the beads by heating at 70° C. for 10 min in SDS loading buffer. Samples were then subjected to electrophoresis and either Western analysis or Coomassie stain (SimplyBlue Safe Stain, Thermo Fisher Scientific). The antibodies used for Western analysis were the following: MCL-1 (Rockland 600-401-394; 1:1000 in 3% BSA), VLCAD (Thermo Fisher Scientific PA5-29959; 1:1000 in 1% milk+0.1% Tween-20), MCAD (Thermo Fisher Scientific PA5-27201; 1:1000 in 3% BSA), and SCAD (Abcam ab154823; 1:1000 in 3% BSA). Coomassie stained gels were then processed for proteomics analysis (see below). Biotinylated SAHB pulldowns of recombinant protein were performed as above incubating 5 nmol of SAHB with 10 pmol of rVLCAD in 500 μL total volume. […]

Sequence of MCL-1ΔNΔC (Q07820 172-320, stated change not applied): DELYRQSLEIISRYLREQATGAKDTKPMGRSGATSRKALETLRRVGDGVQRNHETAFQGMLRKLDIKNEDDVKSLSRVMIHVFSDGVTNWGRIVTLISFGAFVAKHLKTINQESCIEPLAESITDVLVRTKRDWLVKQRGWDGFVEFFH

B2: recombinant VLCAD (mature human VLCAD lacking its cleavable leader sequence, aa 40-655, 10x His-tagged) (protein)
chain: YAGGAAQLALDKSDSHPSDALTRKKPAKAESKSFAVGMFKGQLTTDQVFPYPSVLNEEQTQFLKELVEPVSRFFEEVNDPAKNDALEMVEETTWQGLKELGAFGLQVPSELGGVGLCNTQYARLVEIVGMHDLGVGITLGAHQSIGFKGILLFGTKAQKEKYLPKLASGETVAAFCLTEPSSGSDAASIRTSAVPSPCGKYYTLNGSKLWISNGGLADIFTVFAKTPVTDPATGAVKEKITAFVVERGFGGITHGPPEKKMGIKASNTAEVFFDGVRVPSENVLGEVGSGFKVAMHILNNGRFGMAAALAGTMRGIIAKAVDHATNRTQFGEKIHNFGLIQEKLARMVMLQYVTESMAYMVSANMDQGATDFQIEAAISKIFGSEAAWKVTDECIQIMGGMGFMKEPGVERVLRDLRIFRIFEGTNDILRLFVALQGCMDKGKELSGLGSALKNPFGNAGLLLGEAGKQLRRRAGLGSGLSLSGLVHPELSRSGELAVRALEQFATVVEAKLIKHKKGIVNEQFLLQRLADGAIDLYAMVVVLSRASRSLSEGHPTAQHEKMLCDTWCIEAAARIREGMAALQSDPWQQELYRNFKSISKALVERGGVVTSNPLGF
VLCAD enzymatic activity (reduction of ferrocenium hexafluorophosphate with palmitoyl-CoA as substrate) [2]: an effect not observed when MCL-1 SAHBs that do not bind VLCAD were added
VLCAD enzymatic activity (reduction of ferrocenium hexafluorophosphate with palmitoyl-CoA as substrate) (MCL-1 SAHBD): Pre-incubation of VLCAD with MCL-1 SAHBD caused a decrease in enzymatic activity

B4: MCL-1 SAHBD (peptide)
peptide: RKALETLRRVGDGV[S5]RNH[S5]TAF
modifications: staple 15-19; also: derivatised forms: N-terminal biotin, Btn-PEG, fluorinated analog
notes: One entry for all derivatised forms (biotin, Btn-PEG, fluorinated, underivatised); the form used is named under assay in each row; also called Btn-MCL-1 SAHBD; Biotin-PEG-MCL-1 SAHBD
binding result (MCAD): no binding
EC50 (read off the curve) (MCL-1ΔNΔC): 0.2 µM
binding result (SCAD): no binding
EC50 (read off the curve) [4]: 3 µM

Next, values leading:

binding result [1]: binds
B1: endogenous MCL-1 protein from mouse embryonic fibroblasts (other, UniProt P97287 1-331, looked up)
chain: MFGLRRNAVIGLNLYCGGASLGAGGGSPAGARLVAEEAKARREGGGEAALLPGARVVARPPPVGAEDPDVTASAERRLHKSPGLLAVPPEEMAASAAAAIVSPEEELDGCEPEAIGKRPAVLPLLERVSEAAKSSGADGSLPSTPPPPEEEEDDLYRQSLEIISRYLREQATGSKDSKPLGEAGAAGRRALETLRRVGDGVQRNHETAFQGMLRKLDIKNEGDVKSFSRVMVHVFKDGVTNWGRIVTLISFGAFVAKHLKSVNQESFIEPLAETITDVLVRTKRDWLVKQRGWDGFVEFFHVQDLEGGIRNVLLAFAGVAGVGAGLAYLIR
notes: also called native MCL-1; endogenous/native MCL-1

Kd [3]: 1.7 µM
B3: MCL-1 SAHBD V220A (peptide)
peptide: Biotin-RKALETLRRVGDGAARNH[S5]TAF
modifications: staple (positions not given here); not fully specified (residue 15, bridges); also: second staple residue not placed

binding result [5]: no binding
B5: MCL-1 SAHBD H224A (peptide)
peptide: RKALETLRRVGDGVARNAATAF
modifications: staple (positions not given here); not fully specified (residues 15, 19, bridges); also: biotinylated, site not given here
notes: MCL-1 numbering
